Assay results from the DeepSol protein solubility set.

test: soluble on expression in E. coli; label from the status in PepcDB or PDB records

Sequence | soluble on expression in E. coli
MIRELFEKEGFTLDEEQERKFSIYLQELLRWNKVHNLTSIKKPEEIVRRHFIDSVSVVRCFERIGLDLRGKHFADVGSGAGFPGVPLKIYLKDIKLTLIESVSKKCSFLEYLKIKLNEDYRVLCTRAEKVEEKFDVVLARALGEFEEVKEILEKLSIGYVFVYKGSKLKEEWLKDYKLCELSLSFMPKSYILWKKVLEHHHHHH | not soluble
MGSDKIHHHHHHMKQFSGLSRTIQGNHLLDTCAIDILKIGHRPLVLCAKQEYNTTVESFVKVLTCHGLIVKIVYMEEWDQNSVEECGEVGFRHRADHIIGIGNSSVAACTKAVADLLDLPAVLIPTSPFTTLPWVSVENKKRERPLFNESIQLIIADREQLLTQPTSELINGVVNTLLYLAAIKEVKRNHLFSLVDDILIRSFESVLLRGSLQAIEDFEARILSKEVQDVLEVLSTCVTLDLPSDAWDVIQQIESKLSERREDLVDEPLKRNVVLYLLLSYLTQESEEFQARLKWCQQLLLSANSSNLLSLEAVLKEIALEMGEDGSTRC | not soluble
MDGDFRTSFVREPAGLRPYPALVLNADYRPLSYYPLSLWPWQEAIKAAFLDRVSIVAEYDQVVRSQRAALRIPSVVVLKEFVSPQKRVAFTRFNLFLRDEFRCQYCGAKGDLTFDHVVPRARGGVTSWQNVVAACSPCNLHKGSKTLKQAGMRLARIPREPTPAEMQRHGQRFPPNHLHDSWLDYLYWDAELEALEHHHHHH | not soluble
MQKVLAIVGPTAIGKTDLAISLAQKLNGEIISGDSMQVYQEVEVGTAKATKEEQAKVKHYLVDNRSVFDEYSVKDFVDEAKKAISEVAKKGKLPILVGGTGFYVNALLNEMQLGERNDEERGTSQKWEDYLKENGAEKLWQILNEKDPTAAAKIPVPNSRRTMRALTVIDRTGKKFSEQQKKIKPRYDYLIIGLNSDRQEIYRRINLRVDKMMGKGMLEEAKFIYDNRDKEHQILQAIAYKEFFPYFDGEKSLEDCVTQLKTASRRYAKRQLTYFRNQLPIQWFDPLNDLECEQKIINKVREWENGLEHHHHHH | soluble
MVKIYLIEHVIGAVAYDENGNIVDYITNPRDLGKITEELLNNEKGIPFSATVELLKKVNPQEVVVENEAEVPKLQALGYRVSYEPYSKVSRIFRESLPKVAIDIKFASNEEDYYNFLHELSLEYTRRKLRSAAQKRDLLAIQAVRAMDDIDKTINLFSERLREWYSIHFPELDKLIEDHEEYATIVSRFGDRGFLTIDSLKELGFNEQRINRILDAAKKSIGADISEDDLSAMRMIANTILDLYNIRRNLNNYLEGVMKEVAPNVTALVGPALGARLLSIAGSLDELAKMPASTIQVLGAEKALFRALRSGGRPPKHGIIFQYPAIHTSPRWQRGKIARALAAKLAIAARVDAFSGRFIGDQLNEQLKKRIDEIKEKFAQHHHHHHHH | soluble
MTKAKRTYEPWYWANEHTRLYMRRGYLLPGVSVEERVKEIAQRAEALTKVEGFGRKFLEYMARGWYSLATPIWANYGLRRGLPISCYGTYVEDDTASILRAVAEVGMMSKQGGGTSLYLGRLRPRGAPIRDNGESNGSFAFASLFDRVIEVFNQGSTRRGQCAAYLDVEHPDLEEWLSIQREHSPVQSLFWGVSVGDRWLEEMIAGDGEKRARWAKILKSRAEVGIPYLFFRDNANQKAPEVFRALGKTIWASNLCTEIMLPSSEEESFVCCLSSLNLLHYEEWKDTDAVETLVIFLDSVLDDFIEKAEGIPYMERAVRFAKRYRAIGLGVLGWHSYLQSQRIPLESPEAFRRNAEIFKTIRERAEEASRWLRKRHPEDELAGVGELKERRNATLLAIAPTKSSAFILGQVSPSIEPYTSNYYLKDLQKARVPFKNPFLEEVLREKGKDEEKVWRSILEHNGSVQHLDFLTDEEKAVFKTFAEISQMTLVNLAASRQKHIDQGQSLNLVIHPEAPPRDVNALVLHAWRSGLKALYYQFSQSVAQAYSRDLLLSCQACEG | soluble
MGSDKIHHHHHHMSRTQEKHNRSVSKDVLVVGGGTSGFVAAIAAARNGASVLLLEQRDHLGGTHSGGMVMMIRSMRHMKAPANMEQKKIMMTGYESSFDDEQVVRSIVQEYINRMLEIGSAWGRKDEATARQMFDPEIAKWVIQDMVAEAGVEVWLNTQATDVIMEGNALKGVVIESLRDRVEVHAGITIDTTGDGDIAAAAGAAFEFGSPEDGKCQPASLYFAVGGVQLDKTIAYMRDHANEFGEEYVKTMVGLKEQNKPITMFPFKEKIREALKNGDYPIPYGVETVNPDTLSYIVRPMFRNGKFRYDVTYHNMDMAYNFDATDRVELTKATLAMRDLANKMAKFYRKYVPGYEDSYLSYTAQSVGIRDSRRIVCDYTLTREDVLAGQVFPDGIGRYGSLMDVHDKSGKKSLSLVEVGGHGWFHVPFRSLLPKGIENLMVAGRCISADYDAQGSVRSQAASMVTGQATGTAAALAVQQKRKLRELDVSALQEVLKAQNQVI | not soluble
MGSDKIHHHHHHMANFIEKITYLGTPAIKAGNEHLEMIVVPEWGSNVISLVDKTTNVQLLREPETAESFHDTPTLYGIPILFPPNRISDGTFSFRGRTYHFDINEKDKHNHLHGFLYHEKWNVVTTKQTDEGVIVETEIDLSELPHVQKQFPHHAVVRMTYTIKENTLFKHATVMNKGKEAFPWGIGYHTTFIFPAESSLFSLTADQQWELDERLLPTGKLMDVPYKEALHEGMDLRHKQLDDVFLSSYQKRGGENQAVIYHQHAHISIIYKADEQFKHWVVYNADGKQGYLCPEPYTWVTNAVNLDLPSSLTGLQVLEPGEETTAKSSITIELNHQ | not soluble
MDKEQRNIVVFNASKRELFTSSSGYKSLQKKLRAQWKIQSIKEELTLEKLQGVKLWITAGPREKFTAAELEVLKQYLDSGGALLVMIGEGGELKYDTNINFLLEEFGIMVNNDAVIRNVYYKYFHPKEALVSNGVLNREISRAAGKVVTGVIDEENTGNNSQALTFVYPYGATLNVMKPAVAILSTGSVCFPLNRPVLAFHHSKNAGKLAVLGSCHMFSDQYLDKEENSRIMDVVFQWLTTDSIHLNQIDAEDPEITDYMMLPDTGSLSERLRVCLQEGDENPRDFTSLFDMSLLKLHTNTLPSVLDAYKQLNVKHEALQLITPQFETPLPPLQPAVFQPAFRDLPPPMLDLFDLDETFSSEKVRLAQLSNKCTDDDLEFYVRKCGDILGVTGNLDKDKRDAKHILEHVFFQVVEFKKLNEEHDVDTAEARFSMY | soluble
MPTVPFPILRLPNAILQRSLQQMSPIGLISLSVLSNNMKQIVTMPNNKSRFDGRISTTLPITLHLNVDRNSRHHYVEYAFQFNQSVLRIQDIRGQEPATLTKPGFTDKLWIEHVAEVLFQNKGVILSCDAPFRTYIKELLKNINVTLIAIRSSGFEVWKFFELFPSLEKVTFTEGPIPLSVLSRNLDGLKVNTKDVPLDDALTSNSLSFAMHRNSFTMKEINLFIKQWIRGCNPRLEMFQILFNDIERHLVLENVIFKGINYIEKRNRIVQCQEREEYRIERFDGTEALVWFNPNRFPFLEMTVMMNDDDDKLLV | not soluble
MFSAKKLSPADKLKNISSMLEEIVEDTTVPRNIRAAADNAKNALHNEEQELIVRSATAIQYLDDISEDPNMPIHTRTQIWGIVSELETIK | soluble
EVQLLESGGGLVQPGGSLRLSCAASGFTFSRYVMWWVRQAPGKGLEWVSYIWPSGGNTYYADSVKGRFTISRDNSKNTLYLQMNSLRAEDTAVYYCASSYDFWSNAFDIWGQGTMVTVSSASTKGPSVFPLAPCSRSTSESTAALGCLVKDYFPEPVTVSWNSGALTSGVHTFPAVLQSSGLYSLSSVVTVPSSSLGTKTYTCNVDHKPSNTKVDKRVES | soluble
MAHHHHHHMTGSTHNGGSRLIQYEDSSNKEFIRKYLVETRNEFIEKQMRALYECREIYKDDIDEVINILTYALENNDSVLLRHEVAYVIGQISNEKCNDILIKLLNDTEENLMVRHEAAEGLAAIGSDSNIEVIKKFLNDEKVEVRETCELALSSLLEKNKYAVCSCSNKDSIKEAIKKKRNDEFVSKKFNTIDPVVFTSSGNAKSVDALIEDLNNEAVPLKLRYEALFKLRDMETDVSINALGEVLIKDKKSAIFRHEVAFVLGQALHLNSLKYLISSLQNVGEHEMVRHEVALALGSLGSLNINSQEYKNVQSEIISTLKTFSKDACRVVAESCLVGLDYIAENLNMAIEVN | not soluble
MGSDKIHHHHHHMVYPVRIDTIRYDRKFSFVVFVEDIQSSHQIIDNIMDIGDEIGYPYEVIVSAKDQVTDDYYSDEIKVVGTGLNRRSDGIQRSLKSSTGNYFVIFDPNIRYSLSYADLLYGYAETGSSEVLVSEILGFQTDVLRSVGGWRDLSYGEDIDLLVRVIDNYGVITYPFYGLKQIDLTELIKSTDSIRSGKIKKLRDLIISCNFKYQDIKTIAKILDKSSRISRLLYLSKILSNFARIRPYERPKNNYLTIMERIMESILAKEFLKITTVDFKPSLAISTKTAEYLAGESPLWRITEENGNFVREKI | not soluble
MSLNYSDPVTFEILGVVANYGQEGCFMLAQLPPALQSLHLPLRLKLWDGNHFDLGPSPQVTILVKEPQLISQLTHPSMDQLGTAFVEGKLELEGDIGEAIRVCDELSEALLADEDETPPPRVSHDKTTDAKAISYHYDVSNAFYQLWLDQDMAYSCAYFREPDNTLDQAQQDKFDHLCRKLRLDAGDYLLDVGCGWGGLARFAAREYGAKVFGITLSKEQLKLGRKRVQAEGLADKVDLQILDYRDLPQDGRFDKVVSVGMFEHVGHANLALYCQKLFGAVREGGLVMNHGITAKHVDGRPVGRGAGEFIDRYVFPHGELPHLSMISASICEAGLEVVDVESLRLHYAKTLHHWSENLENQLHKAAALVPEKTLRIWRLYLAGCAYAFQKGWINLHQILAVKPYADGHHDLPWTREDLYREGHHHHHH | soluble
MHCAENCIFCKIIAGDIPSAKVYEDEHVLAFLDISQVTKGHTLVIPKTHIENVYEFTDELAKQYFHAVPKIARAIRDEFEPIGLNTLNNNGEKAGQSVFHYHMHIIPRYGKGDGFGAVWKTHADDYKPEDLQNISSSIAKRLASS | soluble
MAISSRNTLLAALAFIAFQAQAVNVTVAYQTSAEPAKVAQADNTFAKESGATVDWRKFDSGASIVRALASGDVQIGNLGSSPLAVAASQQVPIEVFLLASKLGNSEALVVKKTISKPEDLIGKRIAVPFISTTHYSLLAALKHWGIKPGQVEIVNLQPPAIIAAWQRGDIDGAYVWAPAVNALEKDGKVLTDSEQVGQWGAPTLDVWVVRKDFAEKHPEVVKAFAKSAIDAQQPYIANPDVWLKQPENISKLARLSGVPEGDVPGLVKGNTYLTPQQQTAELTGPVNKAIIDTAQFLKEQGKVPAVANDYSQYVTSRFVQ | soluble
MGSDKIHHHHHHMKAVVIGGGVFGSLIARELTKYDLEVTLIEKNLDVGWGVTKANSAVVHAGYDDPPESVRAQFCASGNAMYEDLSKELDFDFKRIGSFVVAFNDEELKELERLLKQGEENGVPGLTILERDEVLSMEPNLNPEVKYALYAPTAGITEPWMVAIAAVENAVQNGLKLVLGESVVGFEKVNGRVRKVHTSRGEYEADIVINCAGLHADEIAKLAGAEYVPLHPRKGEYILLDKKLQGLVKRVIFPTPTKISKGILVLPTVDGGILLGPTAEDLPEEMKDRPITTREGLEKVREFTRRLVPSLDFSLVVKTFSGLRPESPQKDFFIKVSETVKNFVNVMATRSPGLTAAPAVAKYVVEELIQEKMRIPLEKKKDFKPERKRIVHYSELPLEEWRREIERDPRAGRLVCFCNEVTEKEIVEAIRRGARTLNGVKFRTRAMFGRCQGGFCMARILKILERELGVDMSEIKMKSENSWVVNGKVRE | not soluble
MDTSDHKPLIDRFETEFAEKSSLLRKEESELKRPDLRGDFLCLSCGQNFKHGASLNRHRKLVHSDEYTCMLCARKLYLKETVRDHMRNEHYLGQVYTCGCCNWTFSNKKALTEHAKAIQETGAPGDANPIAKSGNSPGSLLKSPIQRAGFKLNRLLNKSLSPSTSNSTTSSSSRDASGSPQPELELKLEPEPEPEPNEEALEYKRFFNNAVDTILQRNFFTDQQITEVDTWVIIIESANALATALQSYKKAQQIQPAEPAMIPEKRIKPEIE | soluble
